According to the supplement of paper PMC12042874:
± gives the uncertainty stated by the source.

Experiment: amyloid nucleation score (Sup35N fusion, yeast selection) (log enrichment); library NNK3; higher = more nucleation; inactive = no reads after selection
Procedure, shortened: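 The nucleation score equals the log enrichment of output over input reads from DiMSum, centred on the mode score of non-aggregating sequences. It was computed only for sequences with 100 or more input reads. The reads came from Illumina sequencing of plasmid inserts from psi-negative yeast expressing Sup35N fused to peptides of 20 random codons, induced with 100 μM copper sulfate for 24 hours and grown 7 days at 30°C without adenine and uracil.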

| Substance | amyloid nucleation score |
| --- | --- |
| SSSRMFSSLFSVCIWVDTII | inactive |
| SSSTGAFGDSGGR | inactive |
| SSSVCRSLSPLILSHKRYYS | inactive |
| SSTTE | inactive |
| SSVRRYHKLIKRRDYVAFNV | inactive |
| SSWADYSKPYSGFCQGYRVY | inactive |
| SSWYSRAPWLRVEMRRKWYM | 0.025 ± 0.61 |
| STELYVNLDQVSPYSVRQLT | inactive |
| STFSYSPVACWCFGGISQVG | -0.797 ± 2.5 |
| STHFRCELQRICF | inactive |
| STIKFTGFVYFSN | inactive |
| STIVL | inactive |
| STLLRDEML | inactive |
| STPSTQDFVKQSLEARVLSS | inactive |
| STQCFDELMYA | inactive |
| STQTGASRRENSPMGLGYNS | inactive |
| STQTLEKNDVWGFLHSYWCR | 0.128 ± 0.41 |
| STSFNIRIFMYKFAYF | 1.31 ± 0.095 |
| STSVVELVNLVDDLRLNLSR | inactive |
| STTVLQQSLLKNKNLSWDAS | inactive |
| STVRVWHCLFFFLIGVHNCC | inactive |
| SVALYVPLQSYSQQFLEVAT | inactive |
| SVAVRWKAYVMVLSEHSPRG | inactive |

| Substance | amyloid nucleation score |
| --- | --- |
| SVDGDLAEDNMLMVSFSIGK | 0.128 ± 0.54 |
| SVDYDMARSVGCPFWSPKRV | inactive |
| SVERFIMPC | inactive |
| SVGEKGN | inactive |
| SVGMFSVESLVLVKLRLWNL | inactive |
| SVGRQSLYDL | 0.285 ± 0.24 |
| SVHPGTRG | inactive |
| SVIARVVRPMLRCKVSSMSM | inactive |
| SVILNLMRRWPRKHEVKDAC | inactive |
| SVIMFINRIPGSNPL | inactive |
| SVKLLSVTSCDGGRAWWQGG | inactive |
| SVNCHHLPNLHCWKYTKVEY | inactive |
| SVNHKFVSDCIFGRATMEVR | -0.263 ± 0.9 |
| SVNPAKHVMCKRAPGCGKLH | inactive |
| SVNTLLALRV | inactive |
| SVPMVLFRASLVMYGLMLSQ | 0.835 ± 0.12 |
| SVRGITQLSSTLHVRLVITS | inactive |
| SVRRQHPFN | inactive |
| SVSASRSEVTRE | -0.146 ± 0.64 |
| SVSTGVKIACTPTIVDRQLG | inactive |
| SVTFSHVRTSRIRCGIMVYP | inactive |
| SVTFTSSVLYEGSKVSAFLL | inactive |
| SVTLLFLKLYIR | inactive |

| Substance | amyloid nucleation score |
| --- | --- |
| SVYCSCISFGPTSKILVIMD | 2.34 ± 0.088 |
| SVYCYEAS | inactive |
| SVYLT | inactive |
| SVYLTHSLFLRQLVGYLVHL | inactive |
| SVYRSRSHRVFWEFLSGAT | inactive |
| SVYSITSCMHGVAQSEVMFD | 1.1 ± 0.16 |
| SWCLERHGTRWSEFNYGPSS | inactive |
| SWITHSIGSDTATGYETFFN | inactive |
| SWLCPFNGA | inactive |
| SWLFHRYFVGSYCVLMDMRV | inactive |
| SWQMWYWLLVKSMPCMLHHF | inactive |
| SWRASVYFITWDW | inactive |
| SWSANSCFVRIEKISLHNVG | inactive |
| SWTFQHIWVRHSRSPCKAGR | inactive |
| SWTFRTLSKCVYYSFCREMD | inactive |
| SWVYGSSDPSRVSSCLVGVL | inactive |
| SWYESKFVAVRWWIGDPLRG | 0.703 ± 0.26 |
| SYAQGH | 0.901 ± 0.18 |
| SYEHFRWLYHVFKVARFFFL | inactive |
| SYFTVHHSCLGHTTQHVMLS | inactive |
| SYGNCSSMHGPVKMLRICHQ | inactive |
| SYLNRPWD | inactive |
| SYNGYRSGLFGYGSTVSFIS | inactive |

| Substance | amyloid nucleation score |
| --- | --- |
| SYRKEFSVPMATGDDSTPQH | inactive |
| SYRRIGHMRTKLGQVVR | inactive |
| SYSDRGCVGMNVLSVFEGWD | inactive |
| SYSKVCRSKRQI | 0.185 ± 0.71 |
| SYSTARDSVGLSSWSSLIKW | inactive |
| SYTSMFPRCQKIHLRQVRIS | inactive |
| SYYITLHWIVASGSYSADNT | 0.454 ± 0.14 |
| TACLSVQMWFRFSVFSGVYL | inactive |
| TAIRIMMRV | inactive |
| TAIVIMTYYTIRGFRTIGMW | -0.174 ± 0.22 |
| TAKMSRVYCCCFSLFDVSLK | inactive |
| TAKSSGINDRLTQRI | inactive |
| TALAEQ | -0.402 ± 1.3 |
| TAMCQSLGPTATTLTGVSWG | inactive |
| TARPSNKMNHRECCTNKFFP | inactive |
| TASPCFNSYLKNFVLGLPTT | inactive |
| TASVLNYFSGFWRGV | 1.04 ± 0.17 |
| TASVRVRFPLSFTPCLEVHP | inactive |
| TCISFYETVAL | inactive |
| TCLLFVTHFNWYNTLVEGTI | 0.989 ± 0.15 |
| TCLWGYALFICMNSRWGMRW | inactive |
| TCSHVYQTYAVKAASKNIMI | inactive |
| TCSRIQLISNWFRVQLKSNV | inactive |

| Substance | amyloid nucleation score |
| --- | --- |
| TCSYANHMSKVFEVVMV | inactive |
| TCTAFQMHI | 0.007 ± 0.68 |
| TDKAICISLFRVIRLYAYAK | inactive |
| TDMHGFNNIS | inactive |
| TDRTQ | inactive |
| TDTSAGFM | inactive |
| TDVDNGLYRIDNLMARAKVY | inactive |
| TECMGGGSVWTQW | inactive |
| TEDGYNNEMSRQKVMVLINT | inactive |
| TEFKAFHNCQINRSDTTLWL | 0.096 ± 0.68 |
| TENKSMSFFNYDRAYARIL | inactive |
| TENQS | inactive |
| TEQRMQ | inactive |
| TESQRSNWCTASIKSMYSYS | inactive |
| TETSWDGVVLSLISCRFQSY | 3.02 ± 0.079 |
| TEVPFRVSF | inactive |
| TEVSQWGVREVFSLSTSRRL | 0.372 ± 0.28 |
| TFEWCMPFFTNFSLMFFFYW | inactive |
| TFFEVGRQYELAVGKSRSSM | inactive |
| TFGFRNRYFELLSVVIRHLA | inactive |
| TFLMAYSWSCRQRNCKGFIY | inactive |
| TFPLAECRWIVWRLDDSLM | inactive |
| TFPRERWDCPCKVIFRSVTP | inactive |

| Substance | amyloid nucleation score |
| --- | --- |
| TFRIVRFCLKILTCRTC | inactive |
| TFSASAVFTYDKGAPPLLEG | 0.999 ± 0.17 |
| TFTLSCFTCNGFVSDVVHCD | 3.21 ± 0.054 |
| TFTTFRWDEGVLLYLYERVG | inactive |
| TFVVGRVITWKNQVCL | inactive |
| TFWFD | inactive |
| TFWKKGMPGIIYRYFYLF | inactive |
| TFYDDYQDLQKLFARFWLPV | inactive |
| TGDSLLLAHLLWSMDIVNMN | inactive |
| TGFYDCNLGLDLCIAIWVCS | -0.156 ± 0.34 |
| TGHWNSDWFLI | inactive |
| TGLNIILLLCFMMSLGES | inactive |
| TGMFL | -0.004 ± 0.2 |
| TGSMFRSRPRSEG | inactive |
| TGSTDRHYGRYIGWGANSRF | inactive |
| TGSVVRDMVMAFTD | -0.458 ± 0.93 |
| TGVVTMF | inactive |
| TGYCYMILLRNGVQVSVEGT | 0.092 ± 0.81 |
| TGYSYFYGWMVTYATQSKRV | inactive |
| TGYWI | inactive |
| THEVISSFGMVFRNSNFCNS | inactive |
| THLVDYKLVL | inactive |
| THRDYLMVRYCGSCHVEMVS | inactive |

| Substance | amyloid nucleation score |
| --- | --- |
| TIAVLMLIDCGSRGPFRHLT | inactive |
| TIKYVDRPARTGGEALAIVV | -0.323 ± 1 |
| TINRHYVTASRYWLPCRRVR | inactive |
| TIRFGSSLPCNPDSSYLLRI | inactive |
| TISYMWRLNGWRSNRAFGSI | inactive |
| TIYFF | 1.27 ± 0.11 |
| TKECGKKFNYWVRIDLSRLW | inactive |
| TKLMGLSVLLIEVIVGVSCW | inactive |
| TKSAYRWSRKVRNEFQGSMG | inactive |
| TKTFSDVMLYQCAARCKDLH | inactive |
| TKVFVLHSYDCTIKTSGFNS | inactive |
| TKWANR | inactive |
| TKYFRSNNPFHLVYTYIYLT | inactive |
| TLASTGYFFR | inactive |
| TLDAILNLHTS | inactive |
| TLDINMNLRSLYVGQHYADI | inactive |
| TLDPNIHESFFSAACWYSKA | inactive |
| TLFQDSLLYVSWRSES | 0.118 ± 0.34 |
| TLGIWRDYSYKTILRRWDDR | inactive |
| TLGVRIHCGEFNLYDHSRVK | 0.875 ± 0.26 |
| TLHWCMVSNHRAKCYCLFET | 0.472 ± 0.42 |
